Ends that are not written are not given here. * marks the point of attachment. Biotin = O=C1N[C@H]2[C@H](CS[C@H]2CCCCC(=O)*)N1
Key:
Experiment in all cases: ELISA, biotinylated JAK2 WT on plate-coated control peptide (FIG. 1A)
[1] = target: T1, VEGFR peptide (vascular endothelial growth factor receptor autophosphorylation peptide VEGFR 1208-1222)
T1 construct: Control peptide
T1 peptide: SSDVRYVNAFKFM

[2] = target: T2, CDK-2 cyclin box peptide (cyclin-dependent kinase, cyclin box peptide 41-61)
T2 construct: Control peptide; also called CDK 41-61
T2 peptide: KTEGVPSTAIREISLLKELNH

MuIFN-γ(95-125) peptide = target: T3, MuIFN-γ(95-125) peptide (murine)
T3 construct: Control peptide; numbering is on the mature form of murine IFN-γ
T3 peptide: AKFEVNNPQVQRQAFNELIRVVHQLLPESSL

Measured: binding result

B1: biotinylated JAK2 WT peptide (JAK2 autophosphorylation peptide, residues 1001-1013, LPQDKEYYKVKEP) (peptide)
peptide: Biotin-LPQDKEYYKVKEP
notes: Synthetic peptide, biotin incorporated at the N-terminus during synthesis; not phosphorylated at Y1007; also called wild type JAK2 peptide; unphosphorylated JAK2 WT
no binding: all assays above

Source: US20040265963A1 (UNIVERSITY OF FLORIDA RESEARCH FOUNDATION, published 2004)
